The source of these data is the supplement of paper PMC10567573.

B1: MATN2 (parent)
chain: FSLKTFKRKSEVERAVKRMRHLST
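Note: lentivirally expressed fusions sorted by FACS into six bins by GFP to DsRed ratio, PSI derived from sequencing read proportions per bin multiplied by bin number.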

Variants of B1 are the subject of the data set. Nature of the data set: protein stability index of a GFP-peptide fusion (GPS, HEK-293T) (PSI 1-6); higher = more stable. Particulars: c terminus: a fixed tail appended.
Take FVLKTFKRKSEVERAVKRMRHLST [S2V]: the protein stability index was determined as 3.07.

On to FLLKTFKRKSEVERAVKRMRHLST [S2L], for which the protein stability index stood at 1.55.

For the variant FALKTFKRKSEVERAVKRMRHLST [S2A], the protein stability index was found to be 1.8.

Turning to FQLKTFKRKSEVERAVKRMRHLST [S2Q], the protein stability index came to 3.07.

With FNLKTFKRKSEVERAVKRMRHLST [S2N], the protein stability index worked out at 2.84.

With FRLKTFKRKSEVERAVKRMRHLST [S2R], the protein stability index came to 2.36.

Take FMLKTFKRKSEVERAVKRMRHLST [S2M]: the protein stability index was 2.5.

FDLKTFKRKSEVERAVKRMRHLST [S2D]: the protein stability index worked out at 2.77.

Turning to FPLKTFKRKSEVERAVKRMRHLST [S2P], the protein stability index was found to be 2.42.

In the case of FGLKTFKRKSEVERAVKRMRHLST [S2G], the protein stability index worked out at 3.21.

FCLKTFKRKSEVERAVKRMRHLST [S2C]: the protein stability index is 1.5.

As for FHLKTFKRKSEVERAVKRMRHLST [S2H], the protein stability index is 1.99.

With FYLKTFKRKSEVERAVKRMRHLST [S2Y], the protein stability index was determined as 1.82.

With FKLKTFKRKSEVERAVKRMRHLST [S2K], the protein stability index worked out at 1.95.

FELKTFKRKSEVERAVKRMRHLST [S2E]: the protein stability index was found to be 2.51.

As for FWLKTFKRKSEVERAVKRMRHLST [S2W], the protein stability index turned out to be 1.39.

For the variant FTLKTFKRKSEVERAVKRMRHLST [S2T], the protein stability index stood at 1.99.

Take WSLKTFKRKSEVERAVKRMRHLST [F1W]: the protein stability index was 1.69.

For the variant TSLKTFKRKSEVERAVKRMRHLST [F1T], the protein stability index came out at 3.02.

Regarding GSLKTFKRKSEVERAVKRMRHLST [F1G], the protein stability index is 2.86.

With NSLKTFKRKSEVERAVKRMRHLST [F1N], the protein stability index was determined as 3.33.

Consider PSLKTFKRKSEVERAVKRMRHLST [F1P], for which the protein stability index was found to be 3.

Consider HSLKTFKRKSEVERAVKRMRHLST [F1H], for which the protein stability index was found to be 3.6.

Turning to LSLKTFKRKSEVERAVKRMRHLST [F1L], the protein stability index was 2.19.

For the variant ISLKTFKRKSEVERAVKRMRHLST [F1I], the protein stability index turned out to be 2.39.

Regarding VSLKTFKRKSEVERAVKRMRHLST [F1V], the protein stability index was 2.56.

Take ASLKTFKRKSEVERAVKRMRHLST [F1A]: the protein stability index was found to be 3.04.

As for DSLKTFKRKSEVERAVKRMRHLST [F1D], the protein stability index worked out at 2.77.

In the case of RSLKTFKRKSEVERAVKRMRHLST [F1R], the protein stability index was 2.37.

Regarding MSLKTFKRKSEVERAVKRMRHLST [F1M], the protein stability index was determined as 2.24.

Consider KSLKTFKRKSEVERAVKRMRHLST [F1K], for which the protein stability index came out at 3.46.

Take SSLKTFKRKSEVERAVKRMRHLST [F1S]: the protein stability index stood at 2.87.

Regarding YSLKTFKRKSEVERAVKRMRHLST [F1Y], the protein stability index came out at 3.13.

QSLKTFKRKSEVERAVKRMRHLST [F1Q]: the protein stability index is 3.62.

For the variant CSLKTFKRKSEVERAVKRMRHLST [F1C], the protein stability index came out at 2.45.

For the variant ESLKTFKRKSEVERAVKRMRHLST [F1E], the protein stability index amounted to 2.72.

In the case of FSLETFKRKSEVERAVKRMRHLST [K4E], the protein stability index turned out to be 1.8.

As for FSLATFKRKSEVERAVKRMRHLST [K4A], the protein stability index amounted to 1.69.

With FSLTTFKRKSEVERAVKRMRHLST [K4T], the protein stability index worked out at 2.18.

On to FSLRTFKRKSEVERAVKRMRHLST [K4R], for which the protein stability index stood at 2.38.

For the variant FSLMTFKRKSEVERAVKRMRHLST [K4M], the protein stability index was 3.59.

Consider FSLQTFKRKSEVERAVKRMRHLST [K4Q], for which the protein stability index stood at 2.45.

For FSLFTFKRKSEVERAVKRMRHLST [K4F], the protein stability index is 1.85.

Regarding FSLHTFKRKSEVERAVKRMRHLST [K4H], the protein stability index is 2.21.

In the case of FSLLTFKRKSEVERAVKRMRHLST [K4L], the protein stability index was found to be 1.78.

With FSLPTFKRKSEVERAVKRMRHLST [K4P], the protein stability index is 2.58.

As to FSLCTFKRKSEVERAVKRMRHLST [K4C], the protein stability index came out at 1.74.

On to FSLSTFKRKSEVERAVKRMRHLST [K4S], for which the protein stability index came out at 2.09.

For FSLITFKRKSEVERAVKRMRHLST [K4I], the protein stability index turned out to be 2.21.

For the variant FSLGTFKRKSEVERAVKRMRHLST [K4G], the protein stability index was determined as 2.28.

For FSLNTFKRKSEVERAVKRMRHLST [K4N], the protein stability index stood at 2.39.

FSLDTFKRKSEVERAVKRMRHLST [K4D]: the protein stability index stood at 2.05.

On to FSAKTFKRKSEVERAVKRMRHLST [L3A], for which the protein stability index was 2.94.

As to FSSKTFKRKSEVERAVKRMRHLST [L3S], the protein stability index was found to be 2.45.

For the variant FSEKTFKRKSEVERAVKRMRHLST [L3E], the protein stability index came out at 3.08.

Regarding FSGKTFKRKSEVERAVKRMRHLST [L3G], the protein stability index stood at 2.91.

Take FSFKTFKRKSEVERAVKRMRHLST [L3F]: the protein stability index turned out to be 2.23.

Regarding FSCKTFKRKSEVERAVKRMRHLST [L3C], the protein stability index was determined as 1.93.

Regarding FSMKTFKRKSEVERAVKRMRHLST [L3M], the protein stability index worked out at 2.25.

In the case of FSNKTFKRKSEVERAVKRMRHLST [L3N], the protein stability index amounted to 1.98.

Turning to FSIKTFKRKSEVERAVKRMRHLST [L3I], the protein stability index was determined as 2.56.

Regarding FSTKTFKRKSEVERAVKRMRHLST [L3T], the protein stability index came to 2.3.

On to FSYKTFKRKSEVERAVKRMRHLST [L3Y], for which the protein stability index came to 2.15.

On to FSQKTFKRKSEVERAVKRMRHLST [L3Q], for which the protein stability index was 2.23.

Regarding FSWKTFKRKSEVERAVKRMRHLST [L3W], the protein stability index came out at 3.27.

As to FSRKTFKRKSEVERAVKRMRHLST [L3R], the protein stability index came to 3.

In the case of FSDKTFKRKSEVERAVKRMRHLST [L3D], the protein stability index was 2.

FSKKTFKRKSEVERAVKRMRHLST [L3K]: the protein stability index was 3.54.

For FSVKTFKRKSEVERAVKRMRHLST [L3V], the protein stability index was 2.11.

As to FSHKTFKRKSEVERAVKRMRHLST [L3H], the protein stability index came out at 2.78.

Consider FSPKTFKRKSEVERAVKRMRHLST [L3P], for which the protein stability index is 2.13.

FSLKTDKRKSEVERAVKRMRHLST [F6D]: the protein stability index is 2.43.

In the case of FSLKTKKRKSEVERAVKRMRHLST [F6K], the protein stability index came out at 3.47.

As for FSLKTEKRKSEVERAVKRMRHLST [F6E], the protein stability index turned out to be 3.27.

In the case of FSLKTHKRKSEVERAVKRMRHLST [F6H], the protein stability index amounted to 2.94.

Take FSLKTAKRKSEVERAVKRMRHLST [F6A]: the protein stability index is 2.87.

Consider FSLKTIKRKSEVERAVKRMRHLST [F6I], for which the protein stability index came out at 2.14.

In the case of FSLKTCKRKSEVERAVKRMRHLST [F6C], the protein stability index turned out to be 2.28.

Take FSLKIFKRKSEVERAVKRMRHLST [T5I]: the protein stability index was determined as 2.29.

As for FSLKVFKRKSEVERAVKRMRHLST [T5V], the protein stability index is 1.8.

Regarding FSLKLFKRKSEVERAVKRMRHLST [T5L], the protein stability index is 1.58.

Regarding FSLKMFKRKSEVERAVKRMRHLST [T5M], the protein stability index amounted to 2.91.

FSLKYFKRKSEVERAVKRMRHLST [T5Y]: the protein stability index amounted to 1.89.

With FSLKSFKRKSEVERAVKRMRHLST [T5S], the protein stability index was 2.4.

As to FSLKDFKRKSEVERAVKRMRHLST [T5D], the protein stability index is 2.75.

Take FSLKHFKRKSEVERAVKRMRHLST [T5H]: the protein stability index came to 1.91.

Take FSLKFFKRKSEVERAVKRMRHLST [T5F]: the protein stability index turned out to be 2.56.

Turning to FSLKEFKRKSEVERAVKRMRHLST [T5E], the protein stability index was 1.47.

Take FSLKQFKRKSEVERAVKRMRHLST [T5Q]: the protein stability index is 3.18.

As to FSLKPFKRKSEVERAVKRMRHLST [T5P], the protein stability index stood at 2.11.

Regarding FSLKAFKRKSEVERAVKRMRHLST [T5A], the protein stability index worked out at 1.94.

As for FSLKKFKRKSEVERAVKRMRHLST [T5K], the protein stability index worked out at 2.48.

Turning to FSLKRFKRKSEVERAVKRMRHLST [T5R], the protein stability index was 2.48.

In the case of FSLKGFKRKSEVERAVKRMRHLST [T5G], the protein stability index stood at 2.71.
